Test results reported in PMC2930196.

Molecular target: Phospholipid transfer protein (PLTP) in human plasma (human (endogenous in plasma)) (UniProt P55058)
Test: co-IP

Sequence of UniProt P55058 (P55058 18-493): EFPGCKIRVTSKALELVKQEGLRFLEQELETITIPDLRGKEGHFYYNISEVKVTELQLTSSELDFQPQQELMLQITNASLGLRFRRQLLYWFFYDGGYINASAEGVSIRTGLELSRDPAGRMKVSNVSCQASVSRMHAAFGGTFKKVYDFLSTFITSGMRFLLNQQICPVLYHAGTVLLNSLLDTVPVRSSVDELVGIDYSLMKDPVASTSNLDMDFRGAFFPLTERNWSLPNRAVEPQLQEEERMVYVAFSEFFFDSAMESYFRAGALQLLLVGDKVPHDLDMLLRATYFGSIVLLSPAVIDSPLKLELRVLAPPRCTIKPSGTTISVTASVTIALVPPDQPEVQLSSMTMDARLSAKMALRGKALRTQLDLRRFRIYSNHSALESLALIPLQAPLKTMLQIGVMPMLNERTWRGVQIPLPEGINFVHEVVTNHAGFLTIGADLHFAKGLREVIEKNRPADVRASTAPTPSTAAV

Work on “Clusterin (apoJ) in human plasma (natural protein)” yielded a molar ratio of clusterin, PLTP and apoA-I in the isolated PLTP complexes (ELISA) of 5.
